The results in this text go back to US20200017851A1.

Experiment [1] has as its target mesothelin (MSLN) (UniProt Q13421). Kind of experiment: virus binding to Panc-1 cells (MSLN strongly-positive), 4 C, E4 qPCR; reference AdML-5WT (native Ad5 fiber). On the technique in general: In qPCR the cycle at which signal appears reflects the starting amount.
The target is the same in experiment [2]. Kind of experiment: virus binding to Panc-1 cells (MSLN strongly-positive), 4 C, E4 qPCR; reference AdMG553 (Ad5/Ad3 fiber).

“AdML-VTIN (isolated adenovirus with the VTINRSA (SEQ ID NO:12) motif in the AB-loop of the fiber knob) (from UniProt P11818 1-410; P11818 418-581)” displayed a fold binding ability against AdML-5WT in the experiment with mesothelin (MSLN) [1] of 5 fold. Moreover, the fold binding ability against AdMG553 with mesothelin (MSLN) [2] was 2 fold.
